US20030026803A1 (published 2003)

T1: soluble rat CD4 (rat, UniProt P05540 28-394, limits assumed)
T1 sequence (looked up): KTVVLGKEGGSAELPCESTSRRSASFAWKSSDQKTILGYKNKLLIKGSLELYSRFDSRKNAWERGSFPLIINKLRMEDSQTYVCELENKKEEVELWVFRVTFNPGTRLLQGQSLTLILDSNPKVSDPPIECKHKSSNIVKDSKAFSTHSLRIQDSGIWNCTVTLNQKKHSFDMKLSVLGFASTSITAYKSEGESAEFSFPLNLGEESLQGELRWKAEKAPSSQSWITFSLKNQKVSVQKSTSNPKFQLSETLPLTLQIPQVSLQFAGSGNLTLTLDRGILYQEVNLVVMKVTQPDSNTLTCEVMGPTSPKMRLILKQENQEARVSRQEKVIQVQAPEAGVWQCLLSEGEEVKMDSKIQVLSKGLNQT


Experiments:
[1] = molecular target: T1, soluble rat CD4; experiment: BIAcore, 25° C; soluble rat CD4 injected over V-SIRP-CD4d3+4 flowcell and control flowcell
Description: FIG. 6. The NH2-terminal V domain of SIRP binds CD47. Soluble rat CD4 and hCD47-CD4d3+4 were injected into flowcells with immobilised V-SIRP-Cd4d3+4 (solid line) or control rat CD4 (dashed line).
(§1) BIAcore analysis was carried out using a BIAcore™ 2000 biosensor instrument (Biacore AB) as previously described (Brown et al., (1998) J. Exp. Med. 188:2083-90, van der Merwe, et al., (1994) Biochemistry 33:101489-60) using CM5 research grade chips. […] For equilibrium binding increasing and decreasing concentrations of monomeric hCD47-CD4d3+4 were passed over hSIRP-Fc (6500 RU). For kinetic measurements hCD47-CD4d3+4 (18.30 μM) was passed over hSIRP-Fc immobilised at 6500 RU and 3000 RU and a control, CTLA4-Fc (6300 RU). CD47mAb blocking and V-SIRP-CD4d3+4 binding experiments were carried out at 10 and 5 μl/min respectively at 25° C.
To localise the CD47 binding site on SIRP a construct containing only the NH₂-terminal V-like domain of hSIRP in frame with CD4d3+4 was made. V-SIRP-CD4d3+4 was immobilised in one flowcell via a CD4 mAb (OX68). The free OX68 in this flowcell and all the OX68 in the control flowcell was blocked with soluble rat CD4. Blocking was verified by repeating the injection of soluble rat CD4 (FIG. 6). Soluble hCD47-CD4d3+4 was then injected over both the flowcells. […]

[2] = molecular target: T2, hSIRP-Fc (extracellular region of human SIRPα fused to the Fc region of human IgG) (human, UniProt P78324 31-373); experiment: BIAcore, 37° C; lower bound because of rebinding
T2 construct: extracellular domain; also called human SIRP-Fc; dimeric hSIRP-Fc; not shown: human IgG Fc from vector pIg PLUS (R&D Systems)
Description: (§2) (C) Soluble hCD47 (18.3 μM) was injected over immobilised hSIRP-Fc immobilised at high (6500 RU) (filled circles) and low (3000) levels (filled up triangles), and hCTLA-4-Fc (6290 RU) (filled down triangles). Values for koff=1.6 s⁻¹ for hSIRP-Fc high, 2.1 s⁻¹ hSIRP-Fc low and 7.0 s⁻¹ for hCTLA-4-Fc were calculated by exponential decay curve fitting (line) to dissociation data (symbols).
as §1
(§3) To measure the affinity of the interaction hSIRP-Fc was directly immobilised and monomeric hCD47-CD4d3+4 passed over it. As shown in FIG. 5A hCD47-CD4d3+4 bound specifically to hSIRP-Fc in a dose dependent manner. […] The apparent rate constants were calculated as koff=1.3 s⁻¹ for the higher level of hSIRP-Fc and koff=2.1 s⁻¹ for the lower level (FIG. 5C). […]

[3] = molecular target: T2, hSIRP-Fc (extracellular region of human …); experiment: BIAcore, 37° C; 18.3 µM hCD47-CD4d3+4 over hSIRP-Fc at 6500 RU, exponential decay fitting
Description: (§4) FIG. 5. Affinity and dissociation rate of soluble human CD47-CD4d3+4 binding to human SIRP-Fc. (A) Soluble monomeric hCD47-CD4d3+4 was injected at the indicated concentrations in 1 μM through flowcells immobilised hSIRP-Fc (6525 RU) (solid line), or as a negative control CTLA-4-Fc (6290 RU) (dotted line) at 37° C. (B) the difference between the response between the response at equilibrium in the hSIRP-Fc flowcell and the control flow cell is plotted against the hCD47-CD4d3+4 concentration. A kd=8.5 μM and maximal binding of 1400 RU were calculated by non linear curve fitting of the Langmuir isotherm (line) to data (circles) from A with negative control subtracted. […] (C) Soluble hCD47 (18.3 μM) was injected over immobilised hSIRP-Fc immobilised at high (6500 RU) (filled circles) and low (3000) levels (filled up triangles), and hCTLA-4-Fc (6290 RU) (filled down triangles). Values for koff=1.6 s⁻¹ for hSIRP-Fc high, 2.1 s⁻¹ hSIRP-Fc low and 7.0 s⁻¹ for hCTLA-4-Fc were calculated by exponential decay curve fitting (line) to dissociation data (symbols).
(§5) BIAcore analysis was carried out using a BIAcore™ 2000 biosensor instrument (Biacore AB) as previously described (Brown et al., (1998) J. Exp. Med. 188:2083-90, van der Merwe, et al., (1994) Biochemistry 33:101489-60) using CM5 research grade chips. […]

[4] = molecular target: T2, hSIRP-Fc (extracellular region of human …); experiment: BIAcore equilibrium binding at 37° C, non linear curve fitting of the Langmuir isotherm; hSIRP-Fc immobilised (6525 RU), control subtracted
Description: as §4, §5

[5] = molecular target: T2, hSIRP-Fc (extracellular region of human …); experiment: BIAcore equilibrium binding at 37° C, Scatchard analysis
Description: as §2, §1, §3

[6] = molecular target: T2, hSIRP-Fc (extracellular region of human …); experiment: BIAcore, 37° C; 18.3 µM hCD47-CD4d3+4 over hSIRP-Fc at 3000 RU, exponential decay fitting
Description: as §4, §5

[7] = molecular target: T2, hSIRP-Fc (extracellular region of human …); experiment: BIAcore, 37° C; apparent rate constant, hSIRP-Fc at the higher level
Description: as §2, §1, §3

binding result [1] | koff [2] [s⁻¹] | koff [3] [s⁻¹] | Kd [4] [µM] | Kd [5] [µM] | koff [6] [s⁻¹] | koff [7] [s⁻¹] | Binder
no binding | – | – | – | – | – | – | V-SIRP-CD4d3+4 (NH2-terminal V-like domain of hSIRP in frame with rat CD4 domains 3+4) (receptor, human;rat, UniProt P78324 31-148, looked up, domain: NH2-terminal V-like domain;domain: CD4 domains 3+4; Captured on the chip via OX68; also called single SIRP V domain CD4d3+4 fusion protein) EEELQVIQPDKSVLVAAGETATLRCTATSLIPVGPIQWFRGAGPGRELIYNQKEGHFPRVTTVSDLTKRNNMDFSIRIGNITPADAGTYYCVKFRKGSPDDVEFKSGAGTELSVRAKPSTSITAYKSEGESAEFSFPLNLGEESLQGELRWKAEKAPSSQSWITFSLKNQKVSVQKSTSNPKFQLSETLPLTLQIPQVSLQFAGSGNLTLTLDRGILYQEVNLVVMKVTQPDSNTLTCEVMGPTSPKMRLILKQENQEARVSRQEKVIQVQAPEAGVWQCLLSEGEEVKMDSKIQVLSKGLN
– | ≥ 2.1 | 1.6 | 8.5 | 7.6 | 2.1 | 1.3 | hCD47-CD4d3+4 (single extracellular IgSF domain of human CD47 fused to rat CD4 domains 3+4) (ligand, human;rat, UniProt Q08722 19-136, looked up, extracellular domain;domain: CD4 domains 3+4; Used as a monomer in solution, or captured via OX68; also called soluble human CD47-CD4d3+4; soluble hCD47; not shown: biotinylation peptide of the CD4d3+4-biotin vector) QLLFNKTKSVEFTFCNDTVVIPCFVTNMEAQNTTEVYVKWKFKGRDIYTFDGALNKSTVPTDFSSAKIEVSQLLKGDASLKMDKSDAVSHTGNYTCEVTELTREGETIIELKYRVVSWSTSITAYKSEGESAEFSFPLNLGEESLQGELRWKAEKAPSSQSWITFSLKNQKVSVQKSTSNPKFQLSETLPLTLQIPQVSLQFAGSGNLTLTLDRGILYQEVNLVVMKVTQPDSNTLTCEVMGPTSPKMRLILKQENQEARVSRQEKVIQVQAPEAGVWQCLLSEGEEVKMDSKIQVLSKGLN
